This is an account of results in US20050282743A1, “Molecular interactions in cells” (Arbor Vita Corporation, priority 2001, published 2005).

Holding throughout (test): G' assay
The target of experiment [1] is T1, GST-KIAA0973 PDZ domain 1 (Homo sapiens (Human)), Q9Y2H9.
T1 chain: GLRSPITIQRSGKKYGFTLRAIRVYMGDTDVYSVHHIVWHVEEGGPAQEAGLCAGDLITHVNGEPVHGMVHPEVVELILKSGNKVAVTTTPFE

The target in experiment [2] is T2, GST-AIPC PDZ domain 1 (Homo sapiens (Human)), O15018.
T2 chain: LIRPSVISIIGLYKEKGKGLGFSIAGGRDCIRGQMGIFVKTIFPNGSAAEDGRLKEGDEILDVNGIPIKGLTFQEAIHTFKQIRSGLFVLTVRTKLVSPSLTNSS

The target in experiment [3] is T3, GST-KIAA0380 PDZ domain 1 (Homo sapiens (Human)), O15085.
T3 chain: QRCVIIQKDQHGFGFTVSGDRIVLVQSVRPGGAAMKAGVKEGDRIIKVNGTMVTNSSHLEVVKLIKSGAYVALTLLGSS

Experiment [4] addresses T4, GST-KIAA0807(S) PDZ domain 1 (Homo sapiens (Human)), Q6P0Q8.
T4 chain: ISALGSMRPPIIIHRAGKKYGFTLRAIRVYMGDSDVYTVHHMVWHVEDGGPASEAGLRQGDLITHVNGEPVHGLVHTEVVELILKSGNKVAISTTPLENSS

Experiment [5] deals with T5, GST-MINT1 PDZ domains 1, 2, Q02410.
T5 chain: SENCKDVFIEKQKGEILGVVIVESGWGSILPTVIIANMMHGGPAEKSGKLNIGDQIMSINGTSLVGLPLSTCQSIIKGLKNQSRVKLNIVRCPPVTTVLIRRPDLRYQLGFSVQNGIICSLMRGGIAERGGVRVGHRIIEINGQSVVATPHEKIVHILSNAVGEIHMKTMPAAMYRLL

For experiment [6], the target named is T6, GST-APXL-1 PDZ domain 1 (Homo sapiens (Human)), Q13796.
T6 chain: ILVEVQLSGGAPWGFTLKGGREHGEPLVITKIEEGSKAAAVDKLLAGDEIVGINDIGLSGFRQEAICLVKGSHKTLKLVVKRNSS

Experiment [7] addresses GST-KIAA807 [GST: P08515].
Experiment [8] deals with GST-BAI-1 Associated Protein PDZ domain 6 (Homo sapiens (Human)), Q96QZ7.
GST-BAI-1 Associated Protein PDZ domain 6 (Homo sapiens (Human)), Q96QZ7, sequence (Q96QZ7 1143-1233): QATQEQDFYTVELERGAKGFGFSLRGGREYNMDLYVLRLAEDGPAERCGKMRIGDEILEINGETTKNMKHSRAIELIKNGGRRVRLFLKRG
For experiment [9], the target named is T7, GST-INADL PDZ domain 8 (Homo sapiens (Human)), Q8NI35.
T7 chain: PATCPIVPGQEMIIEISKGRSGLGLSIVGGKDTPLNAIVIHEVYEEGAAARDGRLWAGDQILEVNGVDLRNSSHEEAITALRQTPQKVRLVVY

In experiment [10] the target is T8, GST-TIP1 PDZ domain 1 (Table 9 insert) (Homo sapiens (Human)), O14907.
T8 chain: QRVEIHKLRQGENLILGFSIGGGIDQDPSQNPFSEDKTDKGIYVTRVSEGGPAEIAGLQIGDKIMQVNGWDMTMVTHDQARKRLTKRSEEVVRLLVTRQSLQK

The target in experiment [11] is GST-BAI-1 Associated Protein PDZ domain 2 (Mus musculus (Mouse)), Q6RHR9.
GST-BAI-1 Associated Protein PDZ domain 2 (Mus musculus (Mouse)), Q6RHR9, sequence (Q6RHR9 455-558): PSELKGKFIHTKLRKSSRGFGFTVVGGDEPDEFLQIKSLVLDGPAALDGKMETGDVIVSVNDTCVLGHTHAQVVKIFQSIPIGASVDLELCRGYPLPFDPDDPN
The target of experiment [12] is GST-PSD95 PDZ domains 1, 2, 3 (Homo sapiens), P78352.
GST-PSD95 PDZ domains 1, 2, 3 (Homo sapiens), P78352, sequence (P78352 62-395): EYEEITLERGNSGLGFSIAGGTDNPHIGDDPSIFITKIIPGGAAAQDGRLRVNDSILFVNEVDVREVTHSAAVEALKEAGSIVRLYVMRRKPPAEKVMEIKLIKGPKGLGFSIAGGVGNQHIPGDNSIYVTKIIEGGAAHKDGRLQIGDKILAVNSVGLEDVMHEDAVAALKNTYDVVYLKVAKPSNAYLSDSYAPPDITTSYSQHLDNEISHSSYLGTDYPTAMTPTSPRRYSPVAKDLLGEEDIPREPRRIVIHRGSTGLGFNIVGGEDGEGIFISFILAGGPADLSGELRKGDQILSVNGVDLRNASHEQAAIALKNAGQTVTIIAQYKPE
Experiment [13] addresses GST-KIAA1634 PDZ domain 1 (Homo sapiens (Human)), Q5TCQ9.
Experiment [14] deals with T9, GST-NeDLG PDZ domains 1, 2, Q92796.
T9 chain: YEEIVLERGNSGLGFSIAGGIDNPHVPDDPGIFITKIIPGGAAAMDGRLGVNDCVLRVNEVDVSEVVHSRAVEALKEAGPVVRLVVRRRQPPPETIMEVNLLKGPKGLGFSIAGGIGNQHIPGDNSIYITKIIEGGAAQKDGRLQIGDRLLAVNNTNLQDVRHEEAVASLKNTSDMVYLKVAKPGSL

The target in experiment [15] is GST-DLG1 PDZ domains 1, 2 (Homo sapiens), Q12959.
The target in experiment [16] is GST-BAI-1 Associated Protein PDZ domain 3 (Homo sapiens (Human)), Q96QZ7.
GST-BAI-1 Associated Protein PDZ domain 3 (Homo sapiens (Human)), Q96QZ7, sequence (Q96QZ7 other isoform, or with tags, fused parts or gaps): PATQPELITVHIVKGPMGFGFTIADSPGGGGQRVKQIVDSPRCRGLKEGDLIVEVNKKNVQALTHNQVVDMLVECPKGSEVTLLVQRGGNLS
Experiment [17] concerns the target GST-BAI-1 Associated Protein PDZ domain 5 (Homo sapiens (Human)), Q96QZ7.
The target in experiment [18] is T10, GST-MINT1 PDZ domain 2 (Mus musculus (Mouse)), B2RUJ5.
T10 chain: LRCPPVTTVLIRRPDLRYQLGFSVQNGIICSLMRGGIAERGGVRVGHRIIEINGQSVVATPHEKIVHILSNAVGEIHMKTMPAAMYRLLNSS

Experiment [19] addresses T11, GST-LIM-RIL PDZ domain 1 (Homo sapiens (Human)), P50479.
T11 chain: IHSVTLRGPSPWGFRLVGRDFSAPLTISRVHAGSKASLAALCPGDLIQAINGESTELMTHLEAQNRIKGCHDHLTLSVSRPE

Experiment [20] concerns the target T12, GST-MUPP1 PDZ domain 10 (Homo sapiens (Human)), O75970.
T12 chain: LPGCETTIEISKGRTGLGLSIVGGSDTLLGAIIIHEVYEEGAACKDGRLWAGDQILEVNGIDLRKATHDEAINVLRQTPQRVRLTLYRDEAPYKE

Experiment [21] addresses T13, GST-FLJ00011 PDZ domain 1 (Homo sapiens (Human)), Q9H5P4.
T13 chain: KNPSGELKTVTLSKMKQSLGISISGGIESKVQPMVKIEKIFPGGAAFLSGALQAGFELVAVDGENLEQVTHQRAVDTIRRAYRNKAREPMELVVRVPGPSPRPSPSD

The target in experiment [22] is GST-KIAA0147 PDZ domain 1 (Homo sapiens (Human)), Q14160.
GST-KIAA0147 PDZ domain 1 (Homo sapiens (Human)), Q14160, sequence (Q14160 other isoform, or with tags, fused parts or gaps): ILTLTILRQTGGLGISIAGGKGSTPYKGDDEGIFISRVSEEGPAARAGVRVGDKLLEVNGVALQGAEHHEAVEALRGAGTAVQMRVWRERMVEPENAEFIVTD
The target of experiment [23] is T14, GST-KIAA0382 PDZ domain 1 (Canis lupus familiaris (Dog) (Canis familiaris)), A0A8I3.
T14 chain: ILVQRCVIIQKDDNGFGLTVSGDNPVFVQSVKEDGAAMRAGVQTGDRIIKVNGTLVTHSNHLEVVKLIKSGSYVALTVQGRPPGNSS

Experiment [24] addresses T15, GST-KIAA1634 PDZ domain 2 (Homo sapiens (Human)), Q5TCQ9.
T15 chain: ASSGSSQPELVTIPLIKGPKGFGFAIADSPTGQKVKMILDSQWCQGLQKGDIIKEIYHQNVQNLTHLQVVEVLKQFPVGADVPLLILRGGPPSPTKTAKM

Experiment [25] deals with T16, GST-Outer Membrane PDZ domain 1 (Homo sapiens (Human)), P57105.
T16 chain: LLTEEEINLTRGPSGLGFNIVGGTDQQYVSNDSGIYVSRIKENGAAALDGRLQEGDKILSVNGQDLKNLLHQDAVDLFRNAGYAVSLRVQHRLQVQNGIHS

Experiment [26] addresses T17, GST-PDZK1 PDZ domains 2, 3, 4, Q5T2W1.
T17 chain: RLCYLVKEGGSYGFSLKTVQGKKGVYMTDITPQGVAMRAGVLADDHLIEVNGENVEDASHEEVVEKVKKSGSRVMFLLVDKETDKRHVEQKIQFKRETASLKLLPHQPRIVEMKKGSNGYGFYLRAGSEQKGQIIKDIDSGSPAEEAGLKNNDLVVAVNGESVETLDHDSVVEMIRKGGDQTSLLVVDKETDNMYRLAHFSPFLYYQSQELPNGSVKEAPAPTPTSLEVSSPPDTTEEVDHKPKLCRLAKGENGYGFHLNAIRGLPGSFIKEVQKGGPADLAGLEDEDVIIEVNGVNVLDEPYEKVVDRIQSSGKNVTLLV

For experiment [27], the target named is GST-BAI-1 Associated Protein PDZ domain 4 (Homo sapiens (Human)), Q96QZ7.
GST-BAI-1 Associated Protein PDZ domain 4 (Homo sapiens (Human)), Q96QZ7, sequence (Q96QZ7 other isoform, or with tags, fused parts or gaps): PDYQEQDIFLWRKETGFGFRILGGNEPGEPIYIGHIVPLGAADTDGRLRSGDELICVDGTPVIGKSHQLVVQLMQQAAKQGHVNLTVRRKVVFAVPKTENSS
Experiment [28] has as its target T18, GST-FLJ 10324 PDZ domain 1 [GST: P08515].
T18 chain: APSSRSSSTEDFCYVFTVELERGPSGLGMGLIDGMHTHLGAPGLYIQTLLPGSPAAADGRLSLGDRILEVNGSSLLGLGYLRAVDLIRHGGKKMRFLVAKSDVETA

The target in experiment [29] is T19, GST-PTPL1 PDZ domain 2 (Homo sapiens (Human)), Q12923.
T19 chain: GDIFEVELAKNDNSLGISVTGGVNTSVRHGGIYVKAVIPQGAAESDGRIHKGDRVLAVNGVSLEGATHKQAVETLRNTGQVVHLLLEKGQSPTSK
Also: key of the grades not given here.

GST-KIAA807 [GST: P08515], sequence (P08515 whole entry, the tested form may be a part): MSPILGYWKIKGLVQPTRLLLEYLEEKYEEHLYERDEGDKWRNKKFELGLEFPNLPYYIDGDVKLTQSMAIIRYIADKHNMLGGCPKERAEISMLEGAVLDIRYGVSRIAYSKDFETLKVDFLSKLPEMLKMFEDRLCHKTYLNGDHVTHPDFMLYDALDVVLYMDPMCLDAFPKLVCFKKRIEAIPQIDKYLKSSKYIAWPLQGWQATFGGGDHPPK
GST-BAI-1 Associated Protein PDZ domain 5 (Homo sapiens (Human)), Q96QZ7, sequence (Q96QZ7 988-1099): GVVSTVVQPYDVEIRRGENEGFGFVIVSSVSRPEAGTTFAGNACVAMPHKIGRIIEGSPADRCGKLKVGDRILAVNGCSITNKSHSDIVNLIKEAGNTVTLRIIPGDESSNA
GST-KIAA1634 PDZ domain 1 (Homo sapiens (Human)), Q5TCQ9, sequence (Q5TCQ9 401-502): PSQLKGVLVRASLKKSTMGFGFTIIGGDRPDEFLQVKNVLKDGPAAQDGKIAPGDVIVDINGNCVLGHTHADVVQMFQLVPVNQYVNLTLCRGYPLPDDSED

For SSKSKSSEESQTFFGLYKL (modifications not checked) [Fas Ligand], the Classification in experiment [1] came out at 2 A450 class; in experiment [2] it was 2 A450 class; in experiment [3] it was 3 A450 class; in experiment [4], 5 A450 class; in experiment [5], 4 A450 class; in experiment [6], 2 A450 class. Also, the Classification in [7] was 5 A450 class.
In the case of RNIEEVYVGGKQVVPFSSSV (modifications not checked) [Nedasin (s-form)], the Classification in experiment [8] came out at 1 A450 class; in [9], 1 A450 class; in [10] it was 5 A450 class; in [3], 1 A450 class; in experiment [11], 1 A450 class; in [12] it was 3 A450 class. Besides, the Classification amounted to 1 A450 class in [5]; 1 A450 class in [13]; 2 A450 class in experiment [7]; 2 A450 class in experiment [14]; 3 A450 class in experiment [15].
For PGQPPKVKSEFNSYSLTGYV (modifications not checked) [claudin 2], the Classification was determined as 1 A450 class in experiment [16], 2 A450 class in [5], 1 A450 class in [13] and 1 A450 class in experiment [7].
Take KKGTYLTDETHREVKFTSL (modifications not checked) [CD46]: the Classification worked out at 2 A450 class in [1]; 5 A450 class in experiment [4]; 1 A450 class in [5]; 1 A450 class in [17]; 4 A450 class in [7]; 1 A450 class in experiment [18].
As for INSVGSTASSSQPLLVHDDV (modifications not checked) [c-kit receptor], the Classification in experiment [9], in [19], in experiment [20] and in experiment [18] was 1 A450 class in each case.
Regarding GTSDMKDLVGNIEQNEHSVI (modifications not checked) [Mannose Receptor], the Classification in experiment [21], in [4], in experiment [6] and in experiment [7] was 1 A450 class throughout.
With ESSGTQSPKRHSGSYLVTSV (modifications not checked) [APC-adenomatous polyposis coli protein], the Classification is 2 A450 class in [9]; 1 A450 class in experiment [21]; 1 A450 class in experiment [22]; 3 A450 class in experiment [10]; 1 A450 class in [23]; 1 A450 class in experiment [11]. Also, the Classification in experiment [24] is 1 A450 class; in [12], 5 A450 class; in [4] it was 1 A450 class; in experiment [25], 2 A450 class; in experiment [20], 1 A450 class; in experiment [13], 1 A450 class. Further, the Classification in [17] stood at 1 A450 class; in experiment [7], 1 A450 class; in [14] it was 4 A450 class; in experiment [15] it was 5 A450 class.
Consider EALQPEPGRKRIPLTRTTTF (modifications not checked) [somatostatin receptor 4], for which the Classification in [26], in experiment [5], in experiment [17], in [27], in [7] and in [15] was 1 A450 class each time.
For SLKPGTVLPPPPYRHRNTVV (modifications not checked) [ErbB-4 receptor], the Classification amounted to 1 A450 class in [28]; 1 A450 class in experiment [16]; 1 A450 class in experiment [24]; 1 A450 class in experiment [12]; 2 A450 class in experiment [29]; 1 A450 class in [14]. The Classification in [15] came to 1 A450 class.
